Experimental data: publication doi:10.1101/180315 (bioRxiv, 2018)
One block for each binder: values may come before it.

B2: human WIPI4 (natural protein, UniProt Q9Y484 1-360, looked up)
chain: MTQQPLRGVTSLRFNQDQSCFCCAMETGVRIYNVEPLMEKGHLDHEQVGSMGLVEMLHRSNLLALVGGGSSPKFSEISVLIWDDAREGKDSKEKLVLEFTFTKPVLSVRMRHDKIVIVLKNRIYVYSFPDNPRKLFEFDTRDNPKGLCDLCPSLEKQLLVFPGHKCGSLQLVDLASTKPGTSSAPFTINAHQSDIACVSLNQPGTVVASASQKGTLIRLFDTQSKEKLVELRRGTDPATLYCINFSHDSSFLCASSDKGTVHIFALKDTRLNRRSALARVGKVGPMIGQYVDSQWSLASFTVPAESACICAFGRNTSKNVNSVIAICVDGTFHKYVFTPDGNCNREAFDVYLDICDDDDF

Key:
S. cerevisiae ATG2 = S. cerevisiae ATG2 (S. cerevisiae, UniProt P53855 1-1592); assay: negative-stain EM
human WIPI4 = target: B2; assay: SEC
human ATG2A = human ATG2A (human, UniProt Q2TAZ0 1-1938); assay: negative-stain EM
Chain of human ATG2A (Q2TAZ0 whole entry): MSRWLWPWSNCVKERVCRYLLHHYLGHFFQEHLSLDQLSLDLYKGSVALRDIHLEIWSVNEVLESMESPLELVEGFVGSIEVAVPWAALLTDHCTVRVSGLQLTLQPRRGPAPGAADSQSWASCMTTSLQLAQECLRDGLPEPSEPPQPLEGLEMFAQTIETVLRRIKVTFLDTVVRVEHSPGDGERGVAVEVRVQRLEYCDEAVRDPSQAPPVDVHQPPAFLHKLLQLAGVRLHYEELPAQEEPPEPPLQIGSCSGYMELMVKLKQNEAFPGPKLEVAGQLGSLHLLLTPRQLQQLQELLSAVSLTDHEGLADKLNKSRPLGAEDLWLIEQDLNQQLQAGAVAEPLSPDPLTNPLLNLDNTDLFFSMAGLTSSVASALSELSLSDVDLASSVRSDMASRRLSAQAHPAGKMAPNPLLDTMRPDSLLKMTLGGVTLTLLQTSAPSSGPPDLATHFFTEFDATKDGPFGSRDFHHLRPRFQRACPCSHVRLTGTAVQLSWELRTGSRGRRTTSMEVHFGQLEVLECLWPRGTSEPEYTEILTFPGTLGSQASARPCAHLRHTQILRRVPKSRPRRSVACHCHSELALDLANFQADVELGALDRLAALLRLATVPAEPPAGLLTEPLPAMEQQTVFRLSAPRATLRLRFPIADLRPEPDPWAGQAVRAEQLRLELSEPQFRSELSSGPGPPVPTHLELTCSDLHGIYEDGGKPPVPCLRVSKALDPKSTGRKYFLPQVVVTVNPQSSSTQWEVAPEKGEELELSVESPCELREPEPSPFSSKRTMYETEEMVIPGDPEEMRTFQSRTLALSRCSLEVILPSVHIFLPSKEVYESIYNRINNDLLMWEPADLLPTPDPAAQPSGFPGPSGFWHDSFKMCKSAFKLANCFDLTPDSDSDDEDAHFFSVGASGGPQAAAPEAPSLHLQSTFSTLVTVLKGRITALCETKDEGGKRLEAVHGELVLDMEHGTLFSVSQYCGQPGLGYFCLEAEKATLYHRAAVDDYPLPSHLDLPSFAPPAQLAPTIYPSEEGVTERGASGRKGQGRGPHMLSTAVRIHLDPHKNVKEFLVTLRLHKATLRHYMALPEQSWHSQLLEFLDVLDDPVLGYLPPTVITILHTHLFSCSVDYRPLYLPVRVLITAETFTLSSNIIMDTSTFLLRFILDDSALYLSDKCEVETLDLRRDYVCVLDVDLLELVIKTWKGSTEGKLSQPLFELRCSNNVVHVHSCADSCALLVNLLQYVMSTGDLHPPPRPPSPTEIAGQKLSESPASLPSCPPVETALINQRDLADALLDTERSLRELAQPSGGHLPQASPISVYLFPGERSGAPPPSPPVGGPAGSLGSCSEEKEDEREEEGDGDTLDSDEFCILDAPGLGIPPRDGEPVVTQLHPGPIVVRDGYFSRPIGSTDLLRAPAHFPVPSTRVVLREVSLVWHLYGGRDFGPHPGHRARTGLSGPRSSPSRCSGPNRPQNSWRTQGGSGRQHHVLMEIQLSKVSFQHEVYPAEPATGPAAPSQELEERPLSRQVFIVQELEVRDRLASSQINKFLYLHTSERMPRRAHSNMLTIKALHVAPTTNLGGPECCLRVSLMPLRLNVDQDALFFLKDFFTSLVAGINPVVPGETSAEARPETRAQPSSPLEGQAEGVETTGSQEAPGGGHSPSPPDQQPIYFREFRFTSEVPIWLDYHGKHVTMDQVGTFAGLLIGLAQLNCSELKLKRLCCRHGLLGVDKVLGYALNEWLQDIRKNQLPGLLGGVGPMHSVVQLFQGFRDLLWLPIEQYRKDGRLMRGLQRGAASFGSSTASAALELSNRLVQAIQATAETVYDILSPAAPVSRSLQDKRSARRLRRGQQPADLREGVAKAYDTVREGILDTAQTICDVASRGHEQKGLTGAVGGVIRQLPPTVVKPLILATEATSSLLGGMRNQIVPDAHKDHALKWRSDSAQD

Chain of S. cerevisiae ATG2 (P53855 whole entry): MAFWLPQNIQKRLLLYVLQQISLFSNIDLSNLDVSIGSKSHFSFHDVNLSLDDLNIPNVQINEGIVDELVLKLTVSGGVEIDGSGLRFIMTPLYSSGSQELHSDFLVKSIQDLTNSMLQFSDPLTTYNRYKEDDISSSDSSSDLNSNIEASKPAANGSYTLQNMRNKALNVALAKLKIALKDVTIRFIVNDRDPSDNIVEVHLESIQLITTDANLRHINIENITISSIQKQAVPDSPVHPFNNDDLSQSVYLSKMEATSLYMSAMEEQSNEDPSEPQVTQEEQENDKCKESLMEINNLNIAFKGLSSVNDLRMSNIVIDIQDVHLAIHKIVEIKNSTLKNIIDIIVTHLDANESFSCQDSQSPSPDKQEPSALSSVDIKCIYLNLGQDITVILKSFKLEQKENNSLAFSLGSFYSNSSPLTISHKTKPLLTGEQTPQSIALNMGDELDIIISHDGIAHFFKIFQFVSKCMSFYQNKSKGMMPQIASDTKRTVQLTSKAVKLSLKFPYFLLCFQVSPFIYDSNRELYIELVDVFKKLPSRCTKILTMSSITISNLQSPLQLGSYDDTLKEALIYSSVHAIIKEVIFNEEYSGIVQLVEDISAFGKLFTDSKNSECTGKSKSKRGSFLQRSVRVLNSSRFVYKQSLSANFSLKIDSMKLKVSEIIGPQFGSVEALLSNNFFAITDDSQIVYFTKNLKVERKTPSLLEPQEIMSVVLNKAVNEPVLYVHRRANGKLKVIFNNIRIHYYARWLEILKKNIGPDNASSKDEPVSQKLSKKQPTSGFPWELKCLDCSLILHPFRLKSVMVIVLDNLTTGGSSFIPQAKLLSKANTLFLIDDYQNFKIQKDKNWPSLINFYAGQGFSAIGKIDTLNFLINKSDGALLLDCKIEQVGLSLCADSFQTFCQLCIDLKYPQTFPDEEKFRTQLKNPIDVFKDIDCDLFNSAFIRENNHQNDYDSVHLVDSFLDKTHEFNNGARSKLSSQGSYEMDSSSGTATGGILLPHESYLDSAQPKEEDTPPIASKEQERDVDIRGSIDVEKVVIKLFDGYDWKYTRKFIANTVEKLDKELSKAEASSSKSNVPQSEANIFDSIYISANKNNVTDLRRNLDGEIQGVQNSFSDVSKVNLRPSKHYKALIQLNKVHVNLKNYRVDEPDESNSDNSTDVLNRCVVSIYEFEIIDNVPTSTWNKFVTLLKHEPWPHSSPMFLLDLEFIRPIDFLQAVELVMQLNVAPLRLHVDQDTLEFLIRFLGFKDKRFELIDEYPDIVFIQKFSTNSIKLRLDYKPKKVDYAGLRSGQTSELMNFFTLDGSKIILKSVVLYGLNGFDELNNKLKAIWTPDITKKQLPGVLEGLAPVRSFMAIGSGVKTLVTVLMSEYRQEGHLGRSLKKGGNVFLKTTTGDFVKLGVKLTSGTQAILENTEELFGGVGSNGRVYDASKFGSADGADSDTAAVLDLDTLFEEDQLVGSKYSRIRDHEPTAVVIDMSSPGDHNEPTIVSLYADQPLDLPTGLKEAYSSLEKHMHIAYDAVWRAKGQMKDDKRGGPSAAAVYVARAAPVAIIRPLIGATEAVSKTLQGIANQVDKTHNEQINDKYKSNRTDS

binding result (S. cerevisiae ATG2): binds
B1: ATG18 (natural protein, S. cerevisiae, UniProt P43601 1-500, looked up)
chain: MSDSSPTINFINFNQTGTCISLGTSKGFKIFNCEPFGKFYSEDSGGYAIVEMLFSTSLLALVGIGDQPALSPRRLRIINTKKHSIICEVTFPTSILSVKMNKSRLVVLLQEQIYIYDINTMRLLHTIETNPNPRGLMAMSPSVANSYLVYPSPPKVINSEIKAHATTNNITLSVGGNTETSFKRDQQDAGHSDISDLDQYSSFTKRDDADPTSSNGGNSSIIKNGDVIVFNLETLQPTMVIEAHKGEIAAMAISFDGTLMATASDKGTIIRVFDIETGDKIYQFRRGTYATRIYSISFSEDSQYLAVTGSSKTVHIFKLGHSMSNNKLDSDDSNMEEAAADDSSLDTTSIDALSDEENPTRLAREPYVDASRKTMGRMIRYSSQKLSRRAARTLGQIFPIKVTSLLESSRHFASLKLPVETNSHVMTISSIGSPIDIDTSEYPELFETGNSASTESYHEPVMKMVPIRVVSSDGYLYNFVMDPERGGDCLILSQYSILMD

binding result (human WIPI4): binds
Binder: DSDEFCILDAPGLGIPPRDGEPVVTQLHPGPIVVRDGYFSRPIGSTD (domain or fragment, human, UniProt Q2TAZ0 1358-1404, looked up) [6xHis-GB1-ATG2A (1358-1404)]

Binder: B2
stoichiometry N (human ATG2A): 1
